The target in experiment [1] is soluble human FcRn (shFcRn) (human) (UniProt P55899). Kind of experiment: Biacore, IgG immobilized, hFcRn flowed, pH 7.4.
For experiment [2], the target named is rat FcRn/rat β2M expressed on cells (rat) (UniProt P13599). The experiment can be described thus: FACS blocking of IgG-Fc, IgG, pH 6.
rat FcRn/rat β2M expressed on cells (rat), sequence (P13599 23-366 limits assumed, chain 1 of 2): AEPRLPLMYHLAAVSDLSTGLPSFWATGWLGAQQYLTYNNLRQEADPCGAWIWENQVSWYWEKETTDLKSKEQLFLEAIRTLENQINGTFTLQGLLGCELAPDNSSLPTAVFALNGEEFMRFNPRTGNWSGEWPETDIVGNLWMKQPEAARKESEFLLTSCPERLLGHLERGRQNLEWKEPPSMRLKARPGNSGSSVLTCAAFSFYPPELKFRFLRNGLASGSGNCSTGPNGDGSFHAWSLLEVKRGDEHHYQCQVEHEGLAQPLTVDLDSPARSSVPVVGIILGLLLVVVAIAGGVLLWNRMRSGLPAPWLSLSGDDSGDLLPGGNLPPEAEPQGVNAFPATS
rat FcRn/rat β2M expressed on cells (rat), sequence (b2m, as listed by the source limits assumed, chain 2 of 2): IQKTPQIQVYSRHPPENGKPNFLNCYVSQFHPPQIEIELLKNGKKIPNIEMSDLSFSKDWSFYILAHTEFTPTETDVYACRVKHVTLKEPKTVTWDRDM

soluble human FcRn (shFcRn) (human), sequence (P55899 24-297 limits assumed, chain 1 of 2): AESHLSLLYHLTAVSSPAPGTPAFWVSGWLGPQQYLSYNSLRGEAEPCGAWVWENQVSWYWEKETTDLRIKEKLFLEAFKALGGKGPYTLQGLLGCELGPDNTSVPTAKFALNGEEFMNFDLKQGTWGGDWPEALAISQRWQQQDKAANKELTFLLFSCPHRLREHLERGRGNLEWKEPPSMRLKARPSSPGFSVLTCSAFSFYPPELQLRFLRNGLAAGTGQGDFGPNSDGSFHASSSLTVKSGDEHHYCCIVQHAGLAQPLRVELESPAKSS
soluble human FcRn (shFcRn) (human), sequence (b2m, as listed by the source limits assumed, chain 2 of 2): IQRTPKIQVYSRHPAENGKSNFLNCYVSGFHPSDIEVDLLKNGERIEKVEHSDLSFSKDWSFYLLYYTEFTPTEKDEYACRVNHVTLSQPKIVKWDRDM

For the substance M161-B04 IgG (DX-2504) (antibody), the Kd in experiment [1] stood at 7.06 nM.

In the case of 1G3 mouse anti-rat FcRn IgG (antibody), in experiment [2], the IC50 was 1.5 nM.
